# Source: US20240317834A1, “COMPOSITIONS AND METHODS FOR NEUROLOGICAL DISEASES” (CODA BIOTHERAPEUTICS, INC., priority 2020, published 2024)
# B1: CODA409: engineered chimeric LGIC receptor, Y210W in SEQ ID NO: 33 (protein)
# chain: MRCSPGGVWLALAASLLHVSLQGEFQRKLYKELVKNYNPLERPVANDSQPLTVYFSLSLLQIMDVDEKNQVLTTNIWLQMSWTDHYLQWNVSEYPGVKTVRFPDGQIWKPDILLYNSADERFDATFHTNVLVNSSGHCQYLPPGIFKSSCPMDLKNFPMDVQTCKLKFGSWSYGGWSLDLQMQEADISGYIPNGEWDLVGIPGKRSERFWECCKEPYPDVTFTVTMRRRMGYYLIQMYIPSLLIVILSWISFWINMDAAPARVGLGITTVLTMTTQSSGSRASLPKVSYVKAIDIWMAVCLLFVFSALLEYAAVNFVSRQHKELLRFRRKRRHHKSPMLNLFQEDEAGEGRFNFSAYGMGPACLQAKDGISVKGANNSNTTNPPPAPSKSPEEMRKLFIQRAKKIDKISRIGFPMAFLIFNMFYWIIYKIVRREDVHNQ
# modifications: synthetic sequence of chimeric LGIC
# System: Lenti-X 293T cells
# Assay: YFP fluorescence quenching anion reporter plate reader assay of engineered receptors stimulated with acetylcholine or a non-native ligand
# Type: cell-based
# How it was run: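 YFP quench was followed for about 1 min 43 s after ligand delivered in iodide-based ECS, pH 7.2. Values are end-of-read fluorescence (last 10 s) divided by the pre-ligand baseline (15 s). Cells were LX293T, transfected with receptor DNA a day before the assay.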
molecule,measurement,setting,value
B1,YFP fluorescence quenching using CNL001,"1 nM CNL001, first column",−8.914%
same,YFP fluorescence quenching using CNL001,"1 nM CNL001, second column",−14.319%
same,YFP fluorescence quenching using TC-5619/Bradanicline,1 nM brd,−13.45%
same,YFP fluorescence quenching using TC-5619/Bradanicline,3 nM brd,−0.64%
same,YFP fluorescence quenching using Varenicline,"3 nM var, first column",7.776
same,YFP fluorescence quenching using Varenicline,"3 nM var, second column",−2.964
same,YFP fluorescence quenching using CNL001,"10 nM CNL001, first column",−1.444%
same,YFP fluorescence quenching using CNL001,"10 nM CNL001, second column",4.393%
same,YFP fluorescence quenching using TC-5619/Bradanicline,10 nM brd,37.3%
same,YFP fluorescence quenching using TC-5619/Bradanicline,30 nM brd,76.36%
same,YFP fluorescence quenching using Facinicline,30 nM fac,−10.93
same,YFP fluorescence quenching using Varenicline,"30 nM var, first column",−5.568
same,YFP fluorescence quenching using Varenicline,"30 nM var, second column",3.024
same,YFP fluorescence quenching using CNL001,"50 nM CNL001, first column",11.897%
same,YFP fluorescence quenching using CNL001,"50 nM CNL001, second column",11.434%
same,YFP fluorescence quenching using ABT-126,50 nM abt,8.23%
same,YFP fluorescence quenching using CNL001,"100 nM CNL001, first column",12.719%
same,YFP fluorescence quenching using CNL001,"100 nM CNL001, second column",16.053%
same,YFP fluorescence quenching using CNL002,100 nM CNL002,−14.92%
same,YFP fluorescence quenching using ABT-126,100 nM abt,55.53%
same,YFP fluorescence quenching using AZD-0328,100 nM azd0328,−6.57%
same,YFP fluorescence quenching using TC-5619/Bradanicline,100 nM brd,72.72%
same,YFP fluorescence quenching using ABT-126,300 nM abt,74.82%
same,YFP fluorescence quenching using AZD-0328,300 nM azd0328,−4.84%
same,YFP fluorescence quenching using TC-5619/Bradanicline,300 nM brd,75.47%
same,YFP fluorescence quenching using Facinicline,300 nM fac,−5.82
same,YFP fluorescence quenching using Varenicline,"300 nM var, first column",2.815
same,YFP fluorescence quenching using Varenicline,"300 nM var, second column",3.06
same,YFP fluorescence quenching using ABT-126,500 nM abt,77.39%
same,YFP fluorescence quenching using Varenicline,"500 nM var, first column",1.766
same,YFP fluorescence quenching using Varenicline,"500 nM var, second column",2.819
same,YFP fluorescence quenching using CNL001,"1 uM CNL001, first column",14.077%
same,YFP fluorescence quenching using CNL001,"1 uM CNL001, second column",15.495%
same,YFP fluorescence quenching using CNL002,1 uM CNL002,−0.85%
same,YFP fluorescence quenching using ABT-126,1 uM abt,77.77%
same,YFP fluorescence quenching using TC-5619/Bradanicline,1 uM brd,78.73%
same,YFP fluorescence quenching using TC-6987,1 uM tc6987,62.82
same,YFP fluorescence quenching using Varenicline,"1 uM var, first column",1.844
same,YFP fluorescence quenching using Varenicline,"1 uM var, second column",−4.059
same,YFP fluorescence quenching using ABT-126,3 uM abt,69.33%
same,YFP fluorescence quenching using ABT-126,10 uM abt,74.79%
same,YFP fluorescence quenching using Facinicline,10 uM fac,60.97
same,YFP fluorescence quenching using TC-6987,10 uM tc6987,78.66
same,YFP fluorescence quenching using CNL002,30 uM CNL002,29.62%
same,YFP fluorescence quenching using ABT-126,30 uM abt,75.61%
same,YFP fluorescence quenching using AZD-0328,30 uM azd0328,81.64%
same,YFP fluorescence quenching using Facinicline,30 uM fac,57.77
same,YFP fluorescence quenching using ABT-126,50 uM abt,75.72%
same,YFP fluorescence quenching using ABT-126,100 uM abt,78.52%
same,YFP fluorescence quenching using TC-6987,500 uM tc6987,70.35
same,"percent quench of YFP fluorescence, 10 uM ach",acetylcholine 10 uM,−5.43%
same,"percent quench of YFP fluorescence, 100 uM ach",acetylcholine 100 uM,17.14%
same,"percent quench of YFP fluorescence, 1 mM ach",acetylcholine 1 mM,78.84%
same,"percent quench of YFP fluorescence, 3 mM ach",acetylcholine 3 mM,78.55%
